# Measurements published in patent US12344663B2, “Anti-C3 antibodies and antigen-binding fragments thereof and their uses for treating eye or ocular diseases” (CDR-Life AG, priority 2021, dated 2025).
# Assay: In vitro BrM permeation assay, Ussing chamber
# Assay type: in vitro ADME, porcine
# Details: 0.1 mg/ml, up to 72 h, in words
# Experimental: Porcine Bruch's membrane samples are used for this measurement. Porcine eyes are collected from the slaughterhouse) no more than 6 hours after the animals were sacrificed and stored at 4° C. until use (on same day).
# Preparation of enriched Bruch's Membrane (BrM): The eyes are placed into a disposable petri-dish and any residual tissue surrounding the eyeball is removed. The eyeball is incised next to the iris with a scalpel and the front part of the eye as well as lens, vitreous and retinal tissue are removed from the eyecup. […]
# Sampling and membrane integrity analysis: For sampling at different timepoints (4 h, 24 h, 48 h and 72 h) the solution in the single compartments is mixed by carefully pipetting up and down and 90 μl were transferred separately from each sample and diffusate chamber to collection tubes. […] Accumulation of blue particles in the second compartment is observed and camera pictures are recorded to control for overall membrane integrity.
# Sample analysis: 15 μl of each solution from the sample and diffusate chambers are effectively loaded on 2 precast polyacrylamide gels (NuPAGE Bis-Tris gels) together with a similar amount of stored mastermix as loading control. The first gel is analyzed by standard SDS-PAGE and Coomassie-based staining methods for protein detection (anti-C3 scFv). […]
# Evaluation: Pictures of the SDS-gels are analyzed using ImageJ2 software (Fiji). […]
substance,measurement,value
Gly-I-[CV-Trp(Me)-QDWGAHRC]-T-NH2 [Compound A2],Diffusion/penetration through porcine Bruch's membrane,No penetration
